Tested on: Saccharomyces cerevisiae
Experiment: transcriptional activation domain activity (GFP:mCherry ratio, weighted mean of sorted bins, harmonized to initial dataset scale) (arbitrary fluorescence ratio units); higher = stronger transcriptional activation
Details: beta-estradiol 1 µM; induction time 4 h
Outline: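 For this assay, yeast diploids with a GFP reporter carried barcoded protein tiles at URA3, each fused to an estradiol-inducible synthetic transcription factor. Induction was a 1:5 dilution into SC with 1 uM beta-estradiol for 4 hours at 30 °C, followed by sorting into 8 bins by GFP:mCherry ratio and barcode sequencing. Tiles under 50 reads were dropped, and activation activity was calculated as the read-weighted mean of bin median fluorescence, averaged across barcodes and linearly mapped onto the initial dataset scale.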

Row | Sequence | transcriptional activation domain activity
1 | EVKDKVWFLEGVTQVLPQDVDEYSGGGGMHMMLDFLGGGLPSMTTTNFSDFSL | 113000
2 | KAPTAPRKAGIAAKAGEKEAAAGAAAKVAEVTEAAARRGRGRPKKAQEELTAS | 50500
3 | NKVLRWALDSHIKKWSLDHLRTIAHLIQVVELHHFWSEKENAVALIRVIFKSL | 59700
4 | EVKETKEGESQSPAKQEVVQEETVKPSPPQPPQQTKQQKKKKLVLTSGGGGRG | < 6570
5 | FFFFLLFCFSFLYRLLSLYLFLFPFDFFFFSPWFCSNSRFYLRFVSFFPFFFF | 50200
6 | TNPAFANSSLPPIHSSFSTLSNPPSIFCVLPPFLPSFPLSFPFFFSFPFFLFL | 52500
7 | PQQAQAQKEPKKPKPPPPPAAPPGPPPPPRAPPPPPPPPPPPPGGGGAPPPPA | 27600
8 | ILLAAHQILFIFCCWLFTITVCIPLSVIYYLFAILRLIKHYLLHRRPLIAYFL | 56900
9 | RGLKNVVVLPAVGERSLASCLAGGDLDGYVIRVLRMLVWFIAFSRDTYDIYIG | 69600
10 | METATPPQPKKGRRGNPKTRTGCVTCKMRRVKCDEAKPQCKRCISTGRTCDGY | 15500
11 | AETKCEGATTNHMKVEKREKKKRGEKAADKSKEERRSKRKEKQRKEGKTVRNG | 6970
12 | VLAMVAQIRTGLWLLHYRDFMLRELCYDQDLYILQTALIILEPDLVFLLQFFE | 33500
13 | ADAAGEPAQANGESKSAKRRKQKKAAAAAKAAGATNADGTPAAAAEKPARAQR | 17100
14 | SAPAPVRVVSLTKEEPVPEVKEEVKEEVKPAPAAAAPKPKPAAAKKETPAAVK | 13400
15 | RADARSTTRPDGSADESFDALEEEVEEYYIYVHYKTITQPSKALNLVALGRLQ | 52000
16 | YSQLILYLLAKAKLHWNELQNLQVIFADLFEHIHIAGILPNKYQTLSVMANAL | 56500
17 | RDALSGDPTAPRKRSKVSRACDECRRKKIRCDASSESGIEQCSSCKRVGSKCS | 43500
18 | PAANNPTGTLSSDELTFTHDLIEKVFNCNDKLSDNYNTQILSNTEHPLLTSYK | 73500
19 | MSGFVRLLFTFDFRNVLVDILVLHIPLYLFPLFVLSEEFLLLFSFCLFVFLSF | 31000
20 | MFQAKLLQHMCDLHTNSGDGELKTLLTEILRMLLVTYIMAHVLTIERDTVHSV | 47600
21 | ISCLGLTGWAGRFGSLYYIISMGGCSLSLGAMIAHVELKDSANCWWWFRYGFW | 77400

Row | Sequence | transcriptional activation domain activity
22 | PAPKRRGRPSKERVEEQQASDDETAQSSPKRRGRLPRQAASASASASAPVAAK | 44100
23 | RNLMVIVLVVGNLRLVIENIQKYGVLICIRCHDFRQHDVMLGLLLYFLIPCHL | 53400
24 | QADYMCQYKGGLIGKHFKTLSQVMAFAVHGLVPPDVLEAWLILGRLTVLLWHT | 49400
25 | MGLWARFFCFVIVCFQITFLYCLFSFSPSFLDLQKTQPLFFTFFFFCSFPSFP | 44200
26 | MIHGLQSYNLSFLIFFLFLLSSLFVLFVMLSKFAFVLFVDTLYCLIPYVFLFF | 42500
27 | MYNMLVCLAIEFLWQHLYFFLFLYLTLCCDTFQLILYTPLSMFLFFIFILLKK | 16500
28 | LLMGLYLSEICMIGLFVLRDAFGPMVLMVMFFVLSILVHLSLADAFSPLLYNL | 52200
29 | ALKLLVDKVEDPKKNGPKFLKRAQLVVTGFNSQLKARSQRIGHFVNLLQVYLT | 61600
30 | SSSGTPQAKSSSPSSTAASTKAPTSSATKPTSTGSCRKKRSNSTQRRSRTSRM | 45400
31 | MGFEVIFFFLLLGFFIQLLFILLIILLFLLFLVFLLFCYFVILFRLCACMMLY | 47900
32 | SLGMGLDYWARLSGLYLQKLGWGYRVWCFSFWMGLSLGFLLLFSSLGAYILFL | 55400
33 | MDEEVEERNKAFEWTSYSWGKMQIIRYWSRCHAIVVLYTSKRRMWLLVCWLSA | 60400
34 | AMKDIEIVKDEETGAPIVRLRGEAAAAAKKAGVQDITLSISHSDNQAIAVAVA | 58900
35 | VHPIVCLVVCLLGHIWSFHVYYCLLKIGLLFSLFPLVRLARCAIFYRRCFSYF | 40200
36 | DQPLNEILGFLLSWLLMFDHFNEITFKLKQEYTTQLKDGDLISLLLPVLFNIL | 41100
37 | GGAARVDREEMPGVTLCLRHLSACVLGVFLVESSKKVLVVVRTEPITLSKSFG | 45200
38 | EPPPPPPEPEPQPPPKAEPPPEPEPEPVPKAEAPPPPPREEPPPPKKAPPPPK | 44000
39 | KFANNVSEMKKLGARDFEDILQNLIPVVDGLLDEPYNSWILTLLFRLAEWHAL | 42400
40 | DDDKKETGAFTHQWILLAKSRASHILLCITYFYASVLAVVSVGSVNWRNVAVK | 63000
41 | AEAGTSKTAAKAEATPVEGTSAPVEGKAQKKEKKEKKPPAEEAGAGKKKGGAA | 16100
42 | LLTWMPTVAWPMYNRCFGSLIWIPIRYELIAIVILSIITFFFLFLAALISIQL | 43300

Row | Sequence | transcriptional activation domain activity
43 | GLRLIYVVNHGAWGKGPPLATIWVYVIVQLNLLPAVLSLVVIAGFVQYLNLKI | 77200
44 | MPEVESARPTTSSKCIVLFYLFFLPCLSPFLYFLMLTMASVPSPLGFLLLLVC | 66100
45 | WDMTLGGTINKTGVIGVIMIVIGFYLWFFLSCAVLIAMEGCSAMLHSLRLQWV | 31300
46 | GGADTKQGAKIACLECRTAKIKCSAPTDGVVPCRRCVRHGRECIFEKHRRGRK | 42200
47 | LYLRLLVGYLFMILVLLCSHNMMIFLLRSLHHLLTFLTCPLHFFLLLLLLMIT | 39000
48 | RPSSAVVHAPRSKRAALRPSAPARCPPSSSSSSSPSTSPSCRRPASPTTSTCP | 30700
49 | GAEEGAKEKAGEVAKKRKREVAAAVEDEEGGQPKAEKVRTKKGGGKSKEKKDS | 27400
50 | EETVTAEPAAVEEKDGGDDAMAIDTEEPKKKSKKDKKDKKRKAAAETTTATGT | 40600
51 | MAAIDHDKVAKFVGGNSLDKATPGDVTDFVRKNGGHTVITKVLIANNGIAAVK | 45000
52 | MSLLYYMVQSTTTMLLLTPPLCFTFFFIFFLLIFLFFIFYFLFLFYFINRDQS | 47600
53 | LAELVPKLDDSTVQYAYVRQEYANDSESTRVKFALIIWIGQSTKVMRKARVSI | 52800
54 | KSDAAAQVPSRGQKRDRDGDEEGSDAEAGVPGTPIRSSRKTKKRGKKSKEPRE | 50200
55 | CIVLEKYIGRLLGLPCDMVFSVFTAASTLLYDSQTKEPNPDTSRRLKLCIHWL | 68500
56 | LMDSGGPDVRPPPKRARKAINCEPCRNSKLKCDRNRPCSSCVLRGTTSQCYQG | 43700
57 | METSASARSPPPSTRQPSAPRRVRAALACQRCKGRKQKCEGGQPSCRSCIKAG | 60700
58 | IRNHSLPTNLQVKDKIEDLNEIKFFNDFEKLEFFNKYAKVNTNNDVNENNDLW | 46800
59 | SLPVSKGVWGSVGRVILLIFTAKPLEFCIQLTLVDFVEVDAHTMRVIHCRKVR | 28100
60 | MVFFLYISLLIFFFTATIAALPCMVWWILAVHCWLFIFLDPLAFFYYSFFPFF | 26300
61 | MSRVLPEKLPLHLQAACLPQRDLLTALPVVALRCYTDGPQLLRGLVCCLCDMW | 61600
62 | ICVLEKMLLFYFYFPLPFKLTLDQHLSLFSLLCFFFRVMPYTFWLKSYPMLVL | 74200
63 | MCGRLISLLVVLLLVKFRNSSLCGILDVFLFFFRRTPFVRMGFYFMIFLLLTI | 65500

Row | Sequence | transcriptional activation domain activity
64 | KSWGKSLVGLMGRLKRQPICVLVKTDEINHLLHMILYVRENEETSCIKIVHFC | 37900
65 | LRLLVAWLIPQLEMWLHTNMGVRFLLIEYTPEHLGTVLALREFIGDHMFKVAG | 49000
66 | SIWSFSTLLSILARDHVFYFFIKQNVDTFYIWLLETTAIYYIFMLGPIMFLSI | 60600
67 | MFLTLLLGISLLPSLVIVYHLPHSLSFFFPPFLPFLLLPSILFLPGPFLRTAR | 64000
68 | PCSHTILNYGMTLSVSLVVVFRVSHMSFLSSSELSFLRGYHMMLASAFFLFVF | 36600
69 | MVLLSKIVWVICGVTLVSTDFDHAQRRLRGSLLTSLTLYLLIVMCSRWSLVES | 72400
70 | REFRVVEEEEEEEEEEEEEEEEEEEEDEEEGGLGGESVEEGGRRDKGKGVVKE | 20100
71 | MAGENGGLGAFRDGSADGVGRGADLVSSLEQTRGYQMEMFQESLRRNIIVAMD | 62800
72 | VYTVMILSTIFGICYVPFGVFICDSLKAYPGEVTNCSHQMQNLATIFFILFSV | 57000
73 | TFLQVCGSSSIGFSSINLSLRTMAIYGQSLYVVIALVILILGHWCLLLHGLML | 63800
74 | GEASAEKTKKRSRASKGGEDGKKKKSKEARVESNGANGHAGGDAAAAAAAEQQ | 30400
75 | LVRDGILYFFVYTYRNALYQVYVVFGLAAVATLTLNAQLVLNTFLFIIFYVLV | 56900
76 | MYCACGQDGKSPFVMRCVLCFGFVFLFLFLLFFSSLLISLLFIFSHCSMLLPI | 23000
77 | MIHLLQYAYLFLFLLMLYDTLCHAILFFLTLNLTNWWYPIPFNMILHFIVPLF | 45300
78 | DSHYILQGVDAAIQILKLCRVCLHPRAVLSYLPHSFYLYLCYAAVFLLKVVFV | 61700
79 | MFCLRSWIPVLFFLLRTHASPIYLVLFISATYFLNRPCVYCSLLLFILVVALF | 61100
80 | APSAARRSHTKSSPSSGTSPSGPPSARTSSRCTPPPRSSSPSGRRRSSCCKRS | 45900
81 | EGSEEKKERSRRHGDSDRRERRRHRSGSRSRDHDRDRERRHRRHRRSRSRDKE | 13400
82 | RKSELIAKYGLLPRDLRKIDSSVLPHILVRHSAILISLLHLRVLIKADRVLVF | 57200
83 | VQVDDRSIMVSELAVKLGRNFRAQLAILVLFRVVTSKEHIIRKGWKDIIRIWL | 62200

— the supplement of paper PMC12636428
